Source: PMC4121545

System: Lac-mCherry (lac repressor-mCherry fusion, dimeric) (Escherichia coli)
Assay: in vitro transcription repression (indirect), global MWC fit
Conditions: no effector, R conformer (KRO); 20 mM Mg2+; 2 mM spermidine; 20 mM Tris-HCl pH 7.9, 20 mM MgCl2, 1 mM DTT, 2 mM spermidine-HCl, NTPs (0.5 mM GTP/ATP/UTP, 0.25 mM CTP), 37 C, 30 min

For O1 operator reporter, linearized 450 bp, which Ka is on record?
Its Ka is 0.42 nM⁻¹.
